Data taken from paper PMC2786004 (Biochemistry, 2009).

Biological target: the molecule itself
Assay: crystal structure

B1: Bacillus halodurans tRNA isopentenyltransferase MiaA (BH2366), full length (enzyme, UniProt Q9KAC3 1-314, looked up)
chain: MKEKLVAIVGPTAVGKTKTSVMLAKRLNGEVISGDSMQVYRGMDIGTAKITAEEMDGVPHHLIDIKDPSESFSVADFQDLATPLITEIHERGRLPFLVGGTGLYVNAVIHQFNLGDIRADEDYRHELEAFVNSYGVQALHDKLSKIDPKAAAAIHPNNYRRVIRALEIIKLTGKTVTEQARHEEETPSPYNLVMIGLTMERDVLYDRINRRVDQMVEEGLIDEAKKLYDRGIRDCQSVQAIGYKEMYDYLDGNVTLEEAIDTLKRNSRRYAKRQLTWFRNKANVTWFDMTDVDFDKKIMEIHNFIAGKLEEKSK
stoichiometry N: 2
